# Assays:
# [1] = biological target: αvβ3 integrin on human cells (human) (UniProt P06756); assay: 125-I antibody saturation binding on M21 cells (n = 3)
# [2] = biological target: αvβ3 integrin on human cells (human) (UniProt P06756); assay: 125-I antibody saturation binding on A375S2 cells (n = 3)
# [3] = biological target: αvβ3 integrin on human cells (human) (UniProt P06756); assay: 125-I antibody saturation binding on A375S2 cells (n = 6)
# [4] = biological target: human αVβ3 integrin, purified (human) (UniProt P06756); assay: ELISA saturation binding on alphaVbeta3 coated plate, non-linear regression (n = 6)
# Sequence of human αVβ3 integrin, purified (human) (P06756 31-1048, form in doubt, chain 1 of 2): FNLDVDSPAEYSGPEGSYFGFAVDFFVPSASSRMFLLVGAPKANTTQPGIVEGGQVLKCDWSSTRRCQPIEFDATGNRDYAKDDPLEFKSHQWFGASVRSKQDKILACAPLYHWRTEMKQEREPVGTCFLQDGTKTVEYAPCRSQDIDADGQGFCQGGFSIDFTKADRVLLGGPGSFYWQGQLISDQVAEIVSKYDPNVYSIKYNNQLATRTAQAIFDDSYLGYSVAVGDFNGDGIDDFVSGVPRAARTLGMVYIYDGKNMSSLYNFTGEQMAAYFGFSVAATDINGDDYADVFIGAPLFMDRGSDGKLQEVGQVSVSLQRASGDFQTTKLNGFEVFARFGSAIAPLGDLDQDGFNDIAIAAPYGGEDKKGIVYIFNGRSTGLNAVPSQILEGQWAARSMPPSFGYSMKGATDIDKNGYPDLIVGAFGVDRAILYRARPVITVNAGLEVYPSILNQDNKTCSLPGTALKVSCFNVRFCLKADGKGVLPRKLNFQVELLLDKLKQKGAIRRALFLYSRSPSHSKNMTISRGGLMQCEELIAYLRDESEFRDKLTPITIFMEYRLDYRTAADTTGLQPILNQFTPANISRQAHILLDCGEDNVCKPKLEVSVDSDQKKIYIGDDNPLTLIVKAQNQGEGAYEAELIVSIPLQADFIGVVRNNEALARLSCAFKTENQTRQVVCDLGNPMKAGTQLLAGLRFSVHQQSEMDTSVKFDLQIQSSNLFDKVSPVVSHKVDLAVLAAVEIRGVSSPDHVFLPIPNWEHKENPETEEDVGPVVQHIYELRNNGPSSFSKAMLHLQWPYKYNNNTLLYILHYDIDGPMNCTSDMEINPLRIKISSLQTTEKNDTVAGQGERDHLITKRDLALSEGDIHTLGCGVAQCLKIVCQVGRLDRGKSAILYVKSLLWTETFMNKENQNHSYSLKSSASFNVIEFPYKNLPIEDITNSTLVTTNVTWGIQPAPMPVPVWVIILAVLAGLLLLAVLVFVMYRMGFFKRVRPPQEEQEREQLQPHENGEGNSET
# Sequence of human αVβ3 integrin, purified (human) (P05106 27-788, form in doubt, chain 2 of 2, further chain): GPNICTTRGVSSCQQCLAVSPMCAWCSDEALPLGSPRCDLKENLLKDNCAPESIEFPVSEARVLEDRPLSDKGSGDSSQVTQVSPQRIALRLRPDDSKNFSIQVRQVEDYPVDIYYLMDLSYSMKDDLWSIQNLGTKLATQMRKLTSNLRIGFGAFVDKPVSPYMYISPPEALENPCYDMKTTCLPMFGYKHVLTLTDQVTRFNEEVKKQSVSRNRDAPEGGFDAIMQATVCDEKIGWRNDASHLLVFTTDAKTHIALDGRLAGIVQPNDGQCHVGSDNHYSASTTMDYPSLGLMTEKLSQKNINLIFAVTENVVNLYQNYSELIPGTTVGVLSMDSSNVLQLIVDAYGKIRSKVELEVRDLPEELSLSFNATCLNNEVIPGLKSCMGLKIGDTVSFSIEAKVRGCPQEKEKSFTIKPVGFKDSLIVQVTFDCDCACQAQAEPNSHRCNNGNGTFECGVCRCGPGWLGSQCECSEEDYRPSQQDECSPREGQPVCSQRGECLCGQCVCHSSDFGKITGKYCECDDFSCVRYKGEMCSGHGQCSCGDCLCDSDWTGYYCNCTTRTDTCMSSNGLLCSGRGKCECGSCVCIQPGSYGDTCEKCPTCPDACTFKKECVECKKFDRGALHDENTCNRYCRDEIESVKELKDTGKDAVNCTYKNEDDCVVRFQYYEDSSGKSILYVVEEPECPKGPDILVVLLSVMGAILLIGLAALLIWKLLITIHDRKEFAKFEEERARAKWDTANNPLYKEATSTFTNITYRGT
# [5] = biological target: αvβ3 integrin on human cells (human) (UniProt P06756); assay: cell-based or functional assay
# [6] = biological target: αvβ3 integrin on human cells (human) (UniProt P06756); assay: 125-I antibody saturation binding on M21 cells (n = 7)
# [7] = biological target: human αVβ3 integrin, purified (human) (UniProt P06756); assay: ELISA on αVβ3 coated plates
# Sequence of αvβ3 integrin on human cells (human) (P06756 31-1048, chain 1 of 2): as the sequence (P06756 31-1048, form in doubt, chain 1 of 2) above
# Sequence of αvβ3 integrin on human cells (human) (P05106 27-788, chain 2 of 2, further chain): as the sequence (P05106 27-788, form in doubt, chain 2 of 2, further chain) above
Kd [1] [nM],Kd [2] [nM],Receptors per cell (receptors/cell) [3],Kd [4] [nM],"A375S.2 cell adhesion to fibrin, % of no-antibody control (10 µg/ml) [5] [%]","A375S.2 cell adhesion to fibrinogen, % of no-antibody control (10 µg/ml) [5] [%]","A375S.2 cell adhesion to fibronectin, % of no-antibody control (10 µg/ml) [5] [%]","A375S.2 cell adhesion to gelatin, % of no-antibody control (10 µg/ml) [5] [%]","A375S.2 cell adhesion to type I collagen, % of no-antibody control (10 µg/ml) [5] [%]","A375S.2 cell adhesion to vitronectin, % of no-antibody control (10 µg/ml) [5] [%]","HUVEC adhesion to fibrin, % of no-antibody control (10 µg/ml) [5] [%]","HUVEC adhesion to fibrinogen, % of no-antibody control (10 µg/ml) [5] [%]","HUVEC adhesion to fibronectin, % of no-antibody control (10 µg/ml) [5] [%]","HUVEC adhesion to gelatin, % of no-antibody control (10 µg/ml) [5] [%]","HUVEC adhesion to type I collagen, % of no-antibody control (10 µg/ml) [5] [%]","HUVEC adhesion to vitronectin, % of no-antibody control (10 µg/ml) [5] [%]",Receptors per cell (receptors/cell) [6],EC50 [7] [µg/mL],Binder
10,22,370000,0.25,12.9,6.5,104,6,93.1,38.1,35.8,8.7,96.3,2.5,99.6,54.9,660000,–,"ReoPro (c7E3 Fab) (Fab, INN chains, looked up, V domains shown, Fab 125I label) VH: EVQLQQSGTVLARPGASVKMSCEASGYTFTNYWMHWVKQRPGQGLEWIGAIYPGNSDTSYIQKFKGKAKLTAVTSTTSVYMELSSLTNEDSAVYYCTLYDGYYVFAYWGQGTLVTVSA VL: EIVLTQSPVTLSVTPGDSVSLSCRASRDISNNLHWFQQTSHESPRLLIKYASQSMSGIPSRFSGSGSGTDFTLSINSVETEDFGMYFCQQTNSWPYTFGGGTKLEIK"
–,–,–,–,–,–,–,–,–,–,–,–,–,–,–,–,–,0.07,"c7E3 IgG (antibody, INN chains, looked up, V domains shown, IgG) VH: EVQLQQSGTVLARPGASVKMSCEASGYTFTNYWMHWVKQRPGQGLEWIGAIYPGNSDTSYIQKFKGKAKLTAVTSTTSVYMELSSLTNEDSAVYYCTLYDGYYVFAYWGQGTLVTVSA VL: EIVLTQSPVTLSVTPGDSVSLSCRASRDISNNLHWFQQTSHESPRLLIKYASQSMSGIPSRFSGSGSGTDFTLSINSVETEDFGMYFCQQTNSWPYTFGGGTKLEIK"

# Source: US20040185507A1
